Source: paper PMC12025923 (Cells, 2025)

B1: wild-type 14-3-3γ-3xHA [human] / GFP-SLP76 [human] (parent)
chain 1: MVDREQLVQKARLAEQAERYDDMAAAMKNVTELNEPLSNEERNLLSVAYKNVVGARRSSWRVISSIEQKTSADGNEKKIEMVRAYREKIEKELEAVCQDVLSLLDNYLIKNCSETQYESKVFYLKMKGDYYRYLAEVATGEKRATVVESSEKAYSEAHEISKEHMQPTHPIRLGLALNYSVFYYEIQNAPEQACHLAKTAFDDAIAELDTLNEDSYKDSTLIMQLLRDNLTLWTSDQQDDDGGEGNN
chain 2: MALRNVPFRSEVLGWDPDSLADYFKKLNYKDCEKAVKKYHIDGARFLNLTENDIQKFPKLRVPILSKLSQEINKNEERRSIFTRKPQVPRFPEETESHEEDNGGWSSFEEDDYESPNDDQDGEDDGDYESPNEEEEAPVEDDADYEPPPSNDEEALQNSILPAKPFPNSNSMYIDRPPSGKTPQQPPVPPQRPMAALPPPPAGRNHSPLPPPQTNHEEPSRSRNHKTAKLPAPSIDRSTKPPLDRSLAPFDREPFTLGKKPPFSDKPSIPAGRSLGEHLPKIQKPPLPPTTERHERSSPLPGKKPPVPKHGWGPDRRENDEDDVHQRPLPQPALLPMSSNTFPSRSTKPSPMNPLPSSHMPGAFSESNSSFPQSASLPPYFSQGPSNRPPIRAEGRNFPLPLPNKPRPPSPAEEENSLNEEWYVSYITRPEAEAALRKINQDGTFLVRDSSKKTTTNPYVLMVLYKDKVYNIQIRYQKESQVYLLGTGLRGKEDFLSVSDIIDYFRKMPLLLIDGKNRGSRYQCTLTHAAGYP

Variants of: B1
Test: co-immunoprecipitation, quantified Western blot
Settings: with GFP-SLP76 [human]; N2a cells; read off a plot

ratio to parent (fold of wild-type) | Variant
0.2 | chain 1 MVDREQLVQKARLAEQAERYDDMAAAMKNVTELNEPLSNEERNLLSVAYKNVVGARCSSWRVISSIEQKTSADGNEKKIEMVRAYREKIEKELEAVCQDVLSLLDNYLIKNCSETQYESKVFYLKMKGDYYRYLAEVATGEKRATVVESSEKAYSEAHEISKEHMQPTHPIRLGLALNYSVFYYEIQNAPEQACHLAKTAFDDAIAELDTLNEDSYKDSTLIMQLLRDNLTLWTSDQQDDDGGEGNN [chain 1 R57C]
